B1: Transcription factor HY5-like (Arabidopsis thaliana (Mouse-ear cress)), Q8W191-1 (parent)
chain: MSLQRPNGNSSSSSSHKKHKTEESDEELLMVPDMEAAGSTCVLSSSADDGVNNPELDQTQNGVSTAKRRRGRNPVDKEYRSLKRLLRNRVSAQQARERKKVYVSDLESRANELQNNNDQLEEKISTLTNENTMLRKMLINTRPKTDDNH
partner: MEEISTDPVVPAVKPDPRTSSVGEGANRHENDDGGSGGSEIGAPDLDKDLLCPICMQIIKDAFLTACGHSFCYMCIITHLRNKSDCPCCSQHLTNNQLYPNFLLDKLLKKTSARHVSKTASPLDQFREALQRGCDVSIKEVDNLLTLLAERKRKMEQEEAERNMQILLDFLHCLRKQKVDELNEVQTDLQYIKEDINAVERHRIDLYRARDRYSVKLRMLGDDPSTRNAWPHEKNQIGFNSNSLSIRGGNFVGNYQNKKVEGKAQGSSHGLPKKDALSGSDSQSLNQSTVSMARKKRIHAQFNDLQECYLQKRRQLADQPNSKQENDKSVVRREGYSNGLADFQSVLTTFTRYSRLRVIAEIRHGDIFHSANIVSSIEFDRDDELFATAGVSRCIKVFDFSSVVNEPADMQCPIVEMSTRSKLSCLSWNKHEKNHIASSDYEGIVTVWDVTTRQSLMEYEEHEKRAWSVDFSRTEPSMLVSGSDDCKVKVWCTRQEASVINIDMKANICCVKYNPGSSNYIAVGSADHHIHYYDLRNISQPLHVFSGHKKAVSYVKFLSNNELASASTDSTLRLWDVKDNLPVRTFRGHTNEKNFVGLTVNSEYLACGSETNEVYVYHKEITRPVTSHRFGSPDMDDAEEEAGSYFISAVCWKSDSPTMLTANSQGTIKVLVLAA
B2: E3 ubiquitin-protein ligase COP1 (Arabidopsis thaliana (Mouse-ear cress)), P43254 (parent)
chain: B1 partner
partner: B1 chain

Variants of: B1
Details: with cop1_arath COP1, P43254

Row | effect of a mutation on the interaction | Variant
1 | decreasing interaction | V31A;P32A

Variants of: B2
Details: with HYH, Q8W191-1

Row | Variant | effect of a mutation on the interaction
2 | G524E | decreasing interaction
3 | K422E | decreasing interaction
4 | R465E | decreasing interaction

Next, values leading:

Row | effect of a mutation on the interaction | Variant
5 | decreasing interaction | W467A
6 | decreasing interaction | K550E
